These results are taken from the supplement of paper PMC10567573.

B1: VDR (parent)
chain: VTLELSQLSMLPHLADLVSYSIQK
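Further: lentivirally expressed fusions sorted by FACS into six bins by GFP to DsRed ratio, PSI derived from sequencing read proportions per bin multiplied by bin number.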

In this data set the parent is B1. The experiment in a line: protein stability index of a GFP-peptide fusion (GPS, HEK-293T) (PSI 1-6); higher = more stable. The settings on record: c terminus: a fixed tail appended.
With VTLELSQPSMLPHLADLVSYSIQK [L8P], the protein stability index amounted to 2.33. For the variant VTLELSQNSMLPHLADLVSYSIQK [L8N], the protein stability index stood at 2.35.

As for VTLELSQASMLPHLADLVSYSIQK [L8A], the protein stability index is 2.74. On to VTLELSQVSMLPHLADLVSYSIQK [L8V], for which the protein stability index came to 3.88. Take VTLELSQQSMLPHLADLVSYSIQK [L8Q]: the protein stability index was 1.54. Regarding VTLELSQSSMLPHLADLVSYSIQK [L8S], the protein stability index came out at 2.16.

Consider VTLELSQGSMLPHLADLVSYSIQK [L8G], for which the protein stability index is 1.62. For the variant VTLELSQTSMLPHLADLVSYSIQK [L8T], the protein stability index is 2.85. As to VTLELSQESMLPHLADLVSYSIQK [L8E], the protein stability index is 1.65. Consider VTLELSQKSMLPHLADLVSYSIQK [L8K], for which the protein stability index amounted to 3.33. The figure for VTLELSQDSMLPHLADLVSYSIQK [L8D] is 2.91.

Consider VTLELSQCSMLPHLADLVSYSIQK [L8C], for which the protein stability index is 2.43. As to VTLELSQHSMLPHLADLVSYSIQK [L8H], the protein stability index was found to be 2.92. In the case of VTLELSQYSMLPHLADLVSYSIQK [L8Y] it was 2.47; in that of VTLELSQWSMLPHLADLVSYSIQK [L8W], 1.82; in that of VTLELSQMSMLPHLADLVSYSIQK [L8M], 3.27. Take VTLELSQRSMLPHLADLVSYSIQK [L8R]: the protein stability index was 2.25.

WTLELSQLSMLPHLADLVSYSIQK [V1W]: the protein stability index came out at 2.08. For the variant YTLELSQLSMLPHLADLVSYSIQK [V1Y], the protein stability index was found to be 2.2. VTLELSQLSMPPHLADLVSYSIQK [L11P]: the protein stability index was determined as 3.08. Turning to VTLELSQLSMRPHLADLVSYSIQK [L11R], the protein stability index was found to be 1.94.

On to VTLELSQLSMEPHLADLVSYSIQK [L11E], for which the protein stability index worked out at 1.52.

Turning to VTLELSQLSMVPHLADLVSYSIQK [L11V], the protein stability index was 2.06. In the case of VTLELSQLSMFPHLADLVSYSIQK [L11F] it was 2.5; in that of VTLELSQLSMTPHLADLVSYSIQK [L11T], 2.73; in that of VTLELSQLSMYPHLADLVSYSIQK [L11Y], 3.22. For VTLELSQLSMKPHLADLVSYSIQK [L11K], the protein stability index turned out to be 3.55. VTLELSQLSMAPHLADLVSYSIQK [L11A]: the protein stability index came out at 1.62. On to VTLELSQLSMGPHLADLVSYSIQK [L11G], for which the protein stability index was 1.55. For VTLELSQLSMHPHLADLVSYSIQK [L11H], the protein stability index was 3.18.

Consider VTLELSQLSMCPHLADLVSYSIQK [L11C], for which the protein stability index came out at 2.65. On to VTLELSQLSMMPHLADLVSYSIQK [L11M], for which the protein stability index was 2.38. As to VTLELSQLSMWPHLADLVSYSIQK [L11W], the protein stability index was 2.6. Turning to VTLELSQLSMQPHLADLVSYSIQK [L11Q], the protein stability index came out at 2.42. Take VTLELSQLSMNPHLADLVSYSIQK [L11N]: the protein stability index worked out at 1.71. As to VTLELSQLSMSPHLADLVSYSIQK [L11S], the protein stability index was 2.19. VTLELSQLSMDPHLADLVSYSIQK [L11D]: the protein stability index came out at 1.23. For the variant VTLELSQLSMIPHLADLVSYSIQK [L11I], the protein stability index was 3.11. Consider VTLELSQLDMLPHLADLVSYSIQK [S9D], for which the protein stability index was 2.83. Consider VTLELSQLGMLPHLADLVSYSIQK [S9G], for which the protein stability index amounted to 3.56. In the case of VTLELSQLQMLPHLADLVSYSIQK [S9Q], the protein stability index is 2.24.

Take VTLELSQLAMLPHLADLVSYSIQK [S9A]: the protein stability index came to 2.74. Take VTLELSQLKMLPHLADLVSYSIQK [S9K]: the protein stability index was determined as 3.79. Consider VTLELSQLVMLPHLADLVSYSIQK [S9V], for which the protein stability index came to 2.74.

On to VTLELSQLHMLPHLADLVSYSIQK [S9H], for which the protein stability index is 3.83. In the case of VTLELSQLYMLPHLADLVSYSIQK [S9Y] it was 2.63; in that of VTLELSQLPMLPHLADLVSYSIQK [S9P], 1.97. Turning to VTLELSQLLMLPHLADLVSYSIQK [S9L], the protein stability index worked out at 2.79.

As to VTLELSQLWMLPHLADLVSYSIQK [S9W], the protein stability index is 3.43. The figure for VTLELSQLIMLPHLADLVSYSIQK [S9I] is 3.23; for VTLELSQLEMLPHLADLVSYSIQK [S9E] it is 3.48.

Take VTLELSQLMMLPHLADLVSYSIQK [S9M]: the protein stability index stood at 3.43. In the case of VTLELSQLFMLPHLADLVSYSIQK [S9F], the protein stability index came out at 2.67.

For VTLELSQLNMLPHLADLVSYSIQK [S9N], the protein stability index worked out at 3.47. For VTLELSQLRMLPHLADLVSYSIQK [S9R], the protein stability index was found to be 3.06. For VTLELSQLCMLPHLADLVSYSIQK [S9C], the protein stability index stood at 2.37. In the case of VTLELSRLSMLPHLADLVSYSIQK [Q7R] it was 2.33.

Turning to VTLELSLLSMLPHLADLVSYSIQK [Q7L], the protein stability index was 3.66. The figure for VTLELSMLSMLPHLADLVSYSIQK [Q7M] is 3.99; for VTLELSPLSMLPHLADLVSYSIQK [Q7P] it is 2.45; for VTLELSSLSMLPHLADLVSYSIQK [Q7S] it is 2.99. With VTLELSCLSMLPHLADLVSYSIQK [Q7C], the protein stability index came to 2.21.

Regarding VTLELSILSMLPHLADLVSYSIQK [Q7I], the protein stability index turned out to be 2.06.

For the variant VTLELSGLSMLPHLADLVSYSIQK [Q7G], the protein stability index worked out at 1.33. For VTLELSHLSMLPHLADLVSYSIQK [Q7H], the protein stability index was 3.22. Turning to VTLELSWLSMLPHLADLVSYSIQK [Q7W], the protein stability index was determined as 2.56. With VTLELSELSMLPHLADLVSYSIQK [Q7E], the protein stability index came out at 3.06. VTLELSALSMLPHLADLVSYSIQK [Q7A]: the protein stability index amounted to 3.54. Take VTLELSYLSMLPHLADLVSYSIQK [Q7Y]: the protein stability index turned out to be 2.81. On to VTLELSKLSMLPHLADLVSYSIQK [Q7K], for which the protein stability index came out at 2.59. Turning to VTLELSDLSMLPHLADLVSYSIQK [Q7D], the protein stability index was 2.45. As for VTLELSTLSMLPHLADLVSYSIQK [Q7T], the protein stability index amounted to 3.45.

Regarding VTLELSNLSMLPHLADLVSYSIQK [Q7N], the protein stability index came out at 2.84. On to VTLELSVLSMLPHLADLVSYSIQK [Q7V], for which the protein stability index was 2.68. In the case of VTLDLSQLSMLPHLADLVSYSIQK [E4D], the protein stability index was determined as 3.44. With VTLNLSQLSMLPHLADLVSYSIQK [E4N], the protein stability index stood at 2.66.

As to VTLTLSQLSMLPHLADLVSYSIQK [E4T], the protein stability index worked out at 2.67. Regarding VTLMLSQLSMLPHLADLVSYSIQK [E4M], the protein stability index came to 3.22. For VTLYLSQLSMLPHLADLVSYSIQK [E4Y], the protein stability index was found to be 2.58. Take VTLQLSQLSMLPHLADLVSYSIQK [E4Q]: the protein stability index was found to be 3.55.

Consider VTLVLSQLSMLPHLADLVSYSIQK [E4V], for which the protein stability index came to 3.1. With VTLGLSQLSMLPHLADLVSYSIQK [E4G], the protein stability index stood at 2.6. On to VTLCLSQLSMLPHLADLVSYSIQK [E4C], for which the protein stability index turned out to be 3.83.

As for VTLLLSQLSMLPHLADLVSYSIQK [E4L], the protein stability index amounted to 4.64. With VTLALSQLSMLPHLADLVSYSIQK [E4A], the protein stability index is 2.69.

On to VTLRLSQLSMLPHLADLVSYSIQK [E4R], for which the protein stability index was found to be 3.12. Consider VTLILSQLSMLPHLADLVSYSIQK [E4I], for which the protein stability index worked out at 3.27. Take VTLPLSQLSMLPHLADLVSYSIQK [E4P]: the protein stability index stood at 3.67. As to VTLHLSQLSMLPHLADLVSYSIQK [E4H], the protein stability index is 2.02. Take VTLFLSQLSMLPHLADLVSYSIQK [E4F]: the protein stability index was 2.88. Take VTLKLSQLSMLPHLADLVSYSIQK [E4K]: the protein stability index worked out at 3.75.

VTLEVSQLSMLPHLADLVSYSIQK [L5V]: the protein stability index is 2.65.

With VTLEESQLSMLPHLADLVSYSIQK [L5E], the protein stability index was 1.71. For the variant VTLECSQLSMLPHLADLVSYSIQK [L5C], the protein stability index stood at 2.54.
